Reference: patent US10058586B2, “Use of human small leucine zipper protein in adipocyte differentiation procedure” (Korea University Research and Business Foundation, priority 2013, dated 2018)

T1: PPARγ2 (Homo sapiens, UniProt P37231)
T1 sequence (P37231 1-505): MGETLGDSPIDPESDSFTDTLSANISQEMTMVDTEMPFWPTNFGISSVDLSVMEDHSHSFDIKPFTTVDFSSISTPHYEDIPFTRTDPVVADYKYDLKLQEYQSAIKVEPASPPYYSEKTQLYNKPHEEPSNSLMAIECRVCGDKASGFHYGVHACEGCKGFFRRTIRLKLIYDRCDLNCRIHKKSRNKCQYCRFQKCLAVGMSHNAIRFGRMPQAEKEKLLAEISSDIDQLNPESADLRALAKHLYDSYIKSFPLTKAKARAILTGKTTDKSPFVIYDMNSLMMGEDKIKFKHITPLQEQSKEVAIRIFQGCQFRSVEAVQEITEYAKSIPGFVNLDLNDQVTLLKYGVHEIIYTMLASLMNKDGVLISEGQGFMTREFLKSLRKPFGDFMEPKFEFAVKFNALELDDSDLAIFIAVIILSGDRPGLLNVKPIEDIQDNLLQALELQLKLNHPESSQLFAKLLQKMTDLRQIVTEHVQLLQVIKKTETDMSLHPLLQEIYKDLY


Target: T1, PPARγ2
Experiment: Luciferase reporter gene analysis (FABP4-Luc) of PPARγ2 transcriptional activity in 293T cells
Type: cell-based
Design: expressed in transfected cells; host or cells: 293T cells
Conditions: 293T cells; for transcriptional activity of PPARγ2 (luciferase): sLZIP 0.1 μg; for PPARγ2 transcriptional activity (luciferase): sLZIP or deletion mutants 0.1 μg, RZD treated
Protocol: C3H10T1/2 and 293T cells were plated in a 12-well culture dish at a density of 2×10^5 cells/well and incubated for 24 hours. Then, according to instructions of the manufacturer, the cells were transfected with a 0.2 μg of reporter genes and 0.1 to 0.5 μg of a laboratory plasmid using Lipofectamine 2000 or Genefectine. After 24 hours, the cells were cultured in a serum-free DMEM with or without 10 nM of rosiglitazone. siRNAs were prepared using sLZIP and HDAC target sequences (Table 1). For an RNA interference experiment, according to instructions of the manufacturer, the cells were transfected with scrambled control group RNA and appropriate siRNAs using Lipofectamine 2000. Human MSC and C3H10T/1/2 cells were infected with an adenovirus vector containing cDNA of human sLZIP or an empty vector. The infected medium was exchanged with a fresh medium after two hours.
Appropriately transfected cells were washed with cold PBS twice, and a reporter lysis buffer (Promega) was used and lysed in a culture dish. Luciferase analysis was performed using a luciferase analysis system (Promega Corporation, Madison, Wis.). A luciferase activity was recorded in Luminometer 20/20^n (Turner BioSystems, Sunnyvale, Calif.) according to instructions of the manufacturer. The luciferase activity was normalized to a β-galactosidase activity. For β-galactosidase analysis, CMV-β-galactosidase was transfected with luciferase reporter genes. All pieces of data were represented as mean±standard deviation of the results from at least three independent experiments.
In order to examine an effect of sLZIP on the transcriptional activity of PPARγ2, 293T cells were temporarily transfected with PPARγ2 (0.5 μg), β-galactosidase (0.1 μg), FABP4-Luc reporter genes (0.2 μg) and sLZIP at different contents (0.1 to 0.5 μg). After the transfection, the cells were stimulated with or without 10 nM of rosiglitazone (RZD) (FIG. 1A), pioglitazone (PZD) (FIG. 1B), and troglitazone (TZD) (FIG. 1C). A relative luciferase activity was analyzed with or without cell ligand treatment 24 hours after transfection. Also, the 293T cells were transiently transfected with si-sLZIP at different contents (50 and 100 nM), and the cells were treated or not treated with RZD (FIG. 1D). FABP4-Luc stable C3H10T1/2 cells were infected with a sLZIP-expressing adenovirus, and then differentiated into adipocytes for 4 days (FIG. 1E). A luciferase activity was normalized to a β-galactosidase activity and represented as a relative activity (fold change). All experiments were repeated three times, and bars in the graph represent mean±standard deviation. *, P<0.05; **, P<0.01
For this purpose, 293T cells were transiently transfected with PPARγ2 (0.5 μg), (3-galactosidase (0.1 μg), FABP4-Luc reporter genes (0.2 μg) and sLZIP (0.1 μg). After the transfection, the cells were stimulated with or without 10 nM of RZD and 10 nM of TSA (FIG. 4A). A promoter activity was measured according to luciferase analysis. In the 293T cells, FABP4-Luc reporter genes, sLZIP, PPAR, β-galactosidase, and 100 nM of si-RNAs and HDAC1, 2, 3 and 8 for a control group were expressed. After the transfection, the cells were stimulated with or without 10 nM of RZD, and a promoter activity was measured (FIG. 4B). 293T cells were temporarily transfected with FABP4-Luc reporter genes, PPARγ2, β-galactosidase, HDAC3 (0.5 μg) and sLZIP (0.1 μg). After the transfection, the cells were stimulated with or without 10 nM of RZD, and luciferase analysis was performed (FIG. 4C). A luciferase activity was normalized to a β-galactosidase activity and represented as a relative intensity (fold change). All experiments were repeated three times, and bars in the graph represent mean±standard deviation. GFP-sLZIP expression constructs were expressed in C3H10T1/2 cells, rabbit anti-HDAC3 antibodies and Texas Red-labeled anti-rabbit antibodies were used and analysis was performed under a fluorescence microscope. The nucleus was stained with DAPI (FIG. 4D). […]

Row | Molecule | transcriptional activity of PPARγ2 (luciferase) (cells treated with 10 nM TSA (HDAC inhibitor)) | transcriptional activity of PPARγ2 (luciferase) (no TSA) | transcriptional activity of PPARγ2 (relative luciferase activity) (sLZIP 0.1 to 0.5 μg, with or without 10 nM RZD, PZD or TZD) | PPARγ2 transcriptional activity (luciferase) | sLZIP-mediated PPARγ2 transcriptional activity (luciferase) (transfection of both sLZIP (0.1 μg) and HDAC3 (0.5 μg))
1 | sLZIP: human small leucine-zipper protein, isoform of LZIP, 354 amino acids, no transmembrane domain; GenBank FJ263669, SEQ ID NO: 1 (protein, listed as Homo sapiens) MELELDAGDQDLLAFLLEESGDLGTAPDEAVRAPLDWALPLSEVPSDWEVDDLLCSLLSPPASLNILSSSNPCLVHHDHTYSLPRETVSMDLESESCRKEGTQMTPQHMEELAEQEIARLVLTDEEKSLLEKEGLILPETLPLTKTEEQILKRVRRKIRNKRSAQESRRKKKVYVGGLESRVLKYTAQNMELQNKVQLLEEQNLSLLDQLRKLQAMVIEISNKTSSSSMYSSDTRGSLPAEHGVLSRQLRALPSEDPYQLELPALQSEVPKDSTHQWLDGSDCVLQAPGNTSCLLHYMPQAPSAEPPLEWPFPDLFSEPLCRGPILPLQANLTRKGGWLPTGSPSVILQDRYSG | did not decrease the transcriptional activity of PPARγ2 | inhibits the transcriptional activity of PPARγ2 | inhibits the transcriptional activity of PPARγ2 in a concentration-dependent manner | still inhibited the PPARγ2 transcriptional activity | significantly down-regulated
2 | N domains of sLZIP: N-terminal deletion mutant of sLZIP, residues 1-228 (protein, left off: a dimerising Fc or GST) MELELDAGDQDLLAFLLEESGDLGTAPDEAVRAPLDWALPLSEVPSDWEVDDLLCSLLSPPASLNILSSSNPCLVHHDHTYSLPRETVSMDLESESCRKEGTQMTPQHMEELAEQEIARLVLTDEEKSLLEKEGLILPETLPLTKTEEQILKRVRRKIRNKRSAQESRRKKKVYVGGLESRVLKYTAQNMELQNKVQLLEEQNLSLLDQLRKLQAMVIEISNKTSSSS |  |  |  | The transcriptional activity of PPARγ2 was inhibited | 
